{"source": "paper PMC6168507", "about": "(2018)", "target": "LRP-1 (Homo sapiens, UniProt Q07954)", "sequence (Q07954 20-4544)": "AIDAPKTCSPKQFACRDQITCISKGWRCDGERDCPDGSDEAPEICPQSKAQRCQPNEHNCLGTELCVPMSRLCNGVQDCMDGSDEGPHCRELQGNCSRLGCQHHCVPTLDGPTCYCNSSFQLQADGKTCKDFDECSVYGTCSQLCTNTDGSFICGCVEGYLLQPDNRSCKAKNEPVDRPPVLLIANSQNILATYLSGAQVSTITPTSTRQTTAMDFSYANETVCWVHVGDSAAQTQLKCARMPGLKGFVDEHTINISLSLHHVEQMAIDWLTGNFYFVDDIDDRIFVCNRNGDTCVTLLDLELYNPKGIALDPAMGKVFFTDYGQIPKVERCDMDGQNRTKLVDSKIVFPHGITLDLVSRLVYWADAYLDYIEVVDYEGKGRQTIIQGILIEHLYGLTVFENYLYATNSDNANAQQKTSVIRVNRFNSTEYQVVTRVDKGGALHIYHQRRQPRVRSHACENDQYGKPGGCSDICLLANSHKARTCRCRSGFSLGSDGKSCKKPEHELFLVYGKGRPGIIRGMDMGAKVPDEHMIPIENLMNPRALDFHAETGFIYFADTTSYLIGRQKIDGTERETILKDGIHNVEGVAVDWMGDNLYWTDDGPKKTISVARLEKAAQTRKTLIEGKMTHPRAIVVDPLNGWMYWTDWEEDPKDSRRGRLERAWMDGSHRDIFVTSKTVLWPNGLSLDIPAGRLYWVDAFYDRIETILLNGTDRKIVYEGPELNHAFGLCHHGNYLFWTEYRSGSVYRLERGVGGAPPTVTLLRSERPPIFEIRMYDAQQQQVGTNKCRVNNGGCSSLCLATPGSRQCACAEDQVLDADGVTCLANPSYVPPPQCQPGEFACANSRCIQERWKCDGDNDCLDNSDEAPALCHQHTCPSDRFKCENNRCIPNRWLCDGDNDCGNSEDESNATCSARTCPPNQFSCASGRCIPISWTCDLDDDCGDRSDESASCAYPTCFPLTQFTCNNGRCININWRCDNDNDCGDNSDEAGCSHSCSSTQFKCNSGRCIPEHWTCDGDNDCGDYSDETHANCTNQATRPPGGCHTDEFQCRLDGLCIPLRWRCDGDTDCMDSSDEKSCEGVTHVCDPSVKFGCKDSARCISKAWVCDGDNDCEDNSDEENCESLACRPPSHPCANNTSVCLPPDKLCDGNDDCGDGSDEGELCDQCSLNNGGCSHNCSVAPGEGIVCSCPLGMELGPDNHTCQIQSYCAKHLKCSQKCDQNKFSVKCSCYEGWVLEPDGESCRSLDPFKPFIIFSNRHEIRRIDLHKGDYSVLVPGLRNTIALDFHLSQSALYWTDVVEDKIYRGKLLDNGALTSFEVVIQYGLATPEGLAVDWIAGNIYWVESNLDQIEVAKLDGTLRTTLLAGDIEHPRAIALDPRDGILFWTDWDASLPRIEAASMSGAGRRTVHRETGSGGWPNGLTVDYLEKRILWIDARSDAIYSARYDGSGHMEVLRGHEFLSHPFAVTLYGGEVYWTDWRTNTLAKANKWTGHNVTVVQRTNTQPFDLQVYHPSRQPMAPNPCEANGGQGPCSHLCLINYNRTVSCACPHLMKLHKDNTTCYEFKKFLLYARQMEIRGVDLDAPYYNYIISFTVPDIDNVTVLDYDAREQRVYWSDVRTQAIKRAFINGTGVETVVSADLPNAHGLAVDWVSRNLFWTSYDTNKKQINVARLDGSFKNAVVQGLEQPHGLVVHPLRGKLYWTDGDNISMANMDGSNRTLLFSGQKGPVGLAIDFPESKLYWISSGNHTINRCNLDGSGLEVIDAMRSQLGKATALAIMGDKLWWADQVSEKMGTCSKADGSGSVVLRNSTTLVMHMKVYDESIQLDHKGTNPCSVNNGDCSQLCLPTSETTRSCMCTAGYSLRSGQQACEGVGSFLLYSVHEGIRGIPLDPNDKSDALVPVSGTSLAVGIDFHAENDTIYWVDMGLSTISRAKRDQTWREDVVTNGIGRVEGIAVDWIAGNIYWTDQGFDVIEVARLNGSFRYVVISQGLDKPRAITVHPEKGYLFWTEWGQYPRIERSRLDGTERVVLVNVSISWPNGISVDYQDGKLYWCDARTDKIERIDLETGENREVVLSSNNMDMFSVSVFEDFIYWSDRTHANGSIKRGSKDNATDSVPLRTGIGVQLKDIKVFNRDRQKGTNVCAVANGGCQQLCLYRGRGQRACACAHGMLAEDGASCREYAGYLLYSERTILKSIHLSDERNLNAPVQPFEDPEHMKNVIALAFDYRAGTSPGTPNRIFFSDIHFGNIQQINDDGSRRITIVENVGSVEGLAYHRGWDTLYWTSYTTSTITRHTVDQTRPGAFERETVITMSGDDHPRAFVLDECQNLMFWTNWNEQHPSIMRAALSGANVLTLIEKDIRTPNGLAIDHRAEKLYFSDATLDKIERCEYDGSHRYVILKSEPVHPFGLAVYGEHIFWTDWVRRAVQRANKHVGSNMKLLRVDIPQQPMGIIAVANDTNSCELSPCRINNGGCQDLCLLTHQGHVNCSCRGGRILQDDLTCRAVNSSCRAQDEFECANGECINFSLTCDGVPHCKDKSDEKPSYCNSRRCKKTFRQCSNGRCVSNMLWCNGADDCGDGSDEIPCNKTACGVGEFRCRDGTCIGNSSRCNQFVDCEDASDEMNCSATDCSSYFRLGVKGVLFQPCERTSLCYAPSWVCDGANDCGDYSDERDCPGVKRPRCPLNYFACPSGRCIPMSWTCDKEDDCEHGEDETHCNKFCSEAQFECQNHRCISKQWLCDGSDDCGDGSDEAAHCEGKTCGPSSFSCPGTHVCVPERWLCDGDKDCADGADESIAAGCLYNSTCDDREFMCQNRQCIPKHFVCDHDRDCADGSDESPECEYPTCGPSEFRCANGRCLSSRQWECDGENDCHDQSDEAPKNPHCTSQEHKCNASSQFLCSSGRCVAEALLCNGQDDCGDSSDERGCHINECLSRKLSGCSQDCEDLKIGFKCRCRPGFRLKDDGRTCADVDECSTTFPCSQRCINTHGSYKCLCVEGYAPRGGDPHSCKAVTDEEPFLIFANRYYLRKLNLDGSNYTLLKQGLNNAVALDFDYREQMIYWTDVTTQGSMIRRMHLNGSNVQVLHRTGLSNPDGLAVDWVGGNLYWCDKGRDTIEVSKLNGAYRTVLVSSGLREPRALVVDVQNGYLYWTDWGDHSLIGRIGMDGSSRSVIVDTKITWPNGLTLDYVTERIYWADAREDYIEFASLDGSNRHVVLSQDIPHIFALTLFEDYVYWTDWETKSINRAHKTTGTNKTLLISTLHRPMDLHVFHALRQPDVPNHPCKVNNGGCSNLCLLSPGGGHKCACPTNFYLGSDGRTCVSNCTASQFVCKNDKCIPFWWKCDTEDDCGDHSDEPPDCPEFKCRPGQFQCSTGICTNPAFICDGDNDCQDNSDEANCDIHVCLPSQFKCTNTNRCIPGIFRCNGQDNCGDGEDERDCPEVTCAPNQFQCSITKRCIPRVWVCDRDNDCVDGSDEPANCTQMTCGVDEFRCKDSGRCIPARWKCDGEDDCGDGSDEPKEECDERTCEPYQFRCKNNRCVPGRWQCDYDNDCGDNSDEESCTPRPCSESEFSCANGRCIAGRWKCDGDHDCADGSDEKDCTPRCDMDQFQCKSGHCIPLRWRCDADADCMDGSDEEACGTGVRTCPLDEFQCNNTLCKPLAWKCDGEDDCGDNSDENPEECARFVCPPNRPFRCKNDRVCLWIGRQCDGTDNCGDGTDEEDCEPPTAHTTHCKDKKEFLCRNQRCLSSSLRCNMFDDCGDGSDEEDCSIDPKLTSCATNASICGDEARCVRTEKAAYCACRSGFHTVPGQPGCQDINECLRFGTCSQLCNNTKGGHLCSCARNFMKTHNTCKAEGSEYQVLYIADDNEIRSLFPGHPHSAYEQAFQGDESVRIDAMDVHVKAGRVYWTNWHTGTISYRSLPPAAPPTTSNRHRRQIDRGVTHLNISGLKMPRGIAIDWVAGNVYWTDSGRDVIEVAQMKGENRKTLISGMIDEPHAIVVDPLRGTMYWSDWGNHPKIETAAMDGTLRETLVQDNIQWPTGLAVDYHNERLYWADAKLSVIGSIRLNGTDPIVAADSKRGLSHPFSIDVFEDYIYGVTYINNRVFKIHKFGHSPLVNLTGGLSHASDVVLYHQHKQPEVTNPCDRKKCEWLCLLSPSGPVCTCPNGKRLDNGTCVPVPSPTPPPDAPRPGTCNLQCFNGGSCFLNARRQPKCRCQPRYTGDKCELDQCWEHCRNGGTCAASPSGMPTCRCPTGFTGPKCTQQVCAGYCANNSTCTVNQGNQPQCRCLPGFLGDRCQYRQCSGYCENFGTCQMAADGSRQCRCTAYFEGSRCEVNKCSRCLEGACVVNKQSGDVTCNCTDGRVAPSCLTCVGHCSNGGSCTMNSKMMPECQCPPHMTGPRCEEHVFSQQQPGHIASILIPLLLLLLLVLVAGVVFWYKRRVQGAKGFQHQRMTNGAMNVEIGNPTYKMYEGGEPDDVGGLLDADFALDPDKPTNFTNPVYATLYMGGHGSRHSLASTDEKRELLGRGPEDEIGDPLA", "test": "ELISA"}
{"binder": "TIMP-1 (protein) not shown", "values": [{"measurement": "Kd", "result": 16, "unit": "nM"}]}
